What was measured:
human CGRP receptor = human CGRP receptor (human, UniProt Q16602 23-461; O60894 27-148); assay: cell-based or functional assay
human PAC1 receptor = biological target: T1, human PAC1 receptor (human, UniProt P41586 24-468); assay: cell-based or functional assay
T1 sequence: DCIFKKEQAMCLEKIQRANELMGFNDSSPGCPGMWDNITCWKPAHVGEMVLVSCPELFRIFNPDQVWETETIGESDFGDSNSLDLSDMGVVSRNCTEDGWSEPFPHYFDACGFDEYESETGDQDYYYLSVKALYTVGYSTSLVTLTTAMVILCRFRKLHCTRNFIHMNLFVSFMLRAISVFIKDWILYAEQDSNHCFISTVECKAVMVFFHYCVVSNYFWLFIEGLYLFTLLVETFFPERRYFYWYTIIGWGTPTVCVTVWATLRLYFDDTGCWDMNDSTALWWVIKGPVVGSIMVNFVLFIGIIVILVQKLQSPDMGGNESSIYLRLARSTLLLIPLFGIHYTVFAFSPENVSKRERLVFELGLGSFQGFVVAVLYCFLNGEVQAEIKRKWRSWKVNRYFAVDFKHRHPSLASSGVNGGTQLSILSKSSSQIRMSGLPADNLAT

human CGRP receptor, sequence (Q16602 23-461 limits assumed, chain 1 of 2): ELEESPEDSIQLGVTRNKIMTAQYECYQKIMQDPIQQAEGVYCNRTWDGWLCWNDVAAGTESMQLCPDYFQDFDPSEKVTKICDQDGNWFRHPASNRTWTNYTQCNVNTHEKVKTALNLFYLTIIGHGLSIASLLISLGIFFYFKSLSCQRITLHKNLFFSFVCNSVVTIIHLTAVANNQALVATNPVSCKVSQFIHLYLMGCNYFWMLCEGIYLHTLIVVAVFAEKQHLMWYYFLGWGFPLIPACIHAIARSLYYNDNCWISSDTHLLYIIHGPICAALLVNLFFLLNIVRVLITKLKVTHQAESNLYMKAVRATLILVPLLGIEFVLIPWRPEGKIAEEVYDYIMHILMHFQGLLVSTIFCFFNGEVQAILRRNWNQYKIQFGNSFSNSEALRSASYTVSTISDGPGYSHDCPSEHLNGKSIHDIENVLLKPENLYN
human CGRP receptor, sequence (O60894 27-148 limits assumed, chain 2 of 2): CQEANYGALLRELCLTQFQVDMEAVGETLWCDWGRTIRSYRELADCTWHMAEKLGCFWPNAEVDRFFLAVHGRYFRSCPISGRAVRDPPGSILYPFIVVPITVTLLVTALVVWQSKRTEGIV

B1: iPS:454823 (bispecific antibody, human IgG1, kappa, lambda, N297G)
light 1: QSVLTQPPSVSAAPGQKVTISCSGSRSNIGIKAVSWYQQLPGTAPKLLIYDNNKRPSGIPDRFSGSKSGTSATLGITGLQTGDEADYYCGTWDSRLSAVVFGGGTKLTVLGQPKAAPSVTLFPPSSEELQANKATLVCLISDFYPGAVTVAWKADSSPVKAGVETTTPSKQSNNKYAAKSYLSLTPEQWKSHRSYSCQVTHEGSTVEKTVAPTECS
heavy 1: QVQLVESGGGVVQPGRSLRLSCAASGFTFSSFGMHWVRQAPGKGLEWVAVISFDGSIKYSVDSVKGRFTISRDNSKNTLFLQMNSLRAEDTAVYYCARDRLNYYESSGYYHYKYYGMAVWGQGTTVTVSSASTKGPSVFPLAPSSKSTSGGTAALGCLVKDYFPEPVTVSWNSGALTSGVHTFPAVLQSSGLYSLESVVTVPSSSLGTQTYICNVNHKPSNTKVDKKVEPKSCDKTHTCPPCPAPELLGGPSVFLFPPKPKDTLMISRTPEVTCVVVDVSHEDPEVKFNWYVDGVEVHNAKTKPCEEQYGSTYRCVSVLTVLHQDWLNGKEYKCKVSNKALPAPIEKTISKAKGQPREPQVYTLPPSRKKMTKNQVSLTCLVKGFYPSDIAVEWESNGQPENNYKTTPPVLKSDGSFFLYSKLTVDKSRWQQGNVFSCSVMHEALHNHYTQKSLSLSPGK
light 2: EIVLTQSPATLSLSPGERATLSCRASKSVGRSLHWYQQKPGQAPRLLIKYASQSLSGIPARFSGSGSGTDFTLTISSLEPEDFAVYYCHQSSRLPFTFGPGTKVDIKRTVAAPSVFIFPPSDEQLKSGTASVVCLLNNFYPREAKVQWKVDNALQSGNSQESVTEQDSKDSTYSLESTLTLSKADYEKHKVYACEVTHQGLSSPVTKSFNRGEC
heavy 2: not shown
Fold-improvement over 4E4 Ab (human CGRP receptor): 1.5 fold
IC50 (human CGRP receptor): 0.39 nM
Fold-improvement over 29G4v22 Ab (human PAC1 receptor): 8.3 fold
IC50 (human PAC1 receptor): 0.8 nM

B2: iPS:454825 (bispecific antibody, human IgG1, kappa, lambda, N297G)
light 1: QSVLTQPPSVSAAPGQKVTISCSGSRSNIGIKAVSWYQQLPGTAPKLLIYDNNKRPSGIPDRFSGSKSGTSATLGITGLQTGDEADYYCGTWDSRLSAVVFGGGTKLTVLGQPKAAPSVTLFPPSSEELQANKATLVCLISDFYPGAVTVAWKADSSPVKAGVETTTPSKQSNNKYAAKSYLSLTPEQWKSHRSYSCQVTHEGSTVEKTVAPTECS
heavy 1: QVQLVESGGGVVQPGRSLRLSCAASGFTFSSFGMHWVRQAPGKGLEWVAVISFDGSIKYSVDSVKGRFTISRDNSKNTLFLQMNSLRAEDTAVYYCARDRLNYYESSGYYHYKYYGMAVWGQGTTVTVSSASTKGPSVFPLAPSSKSTSGGTAALGCLVKDYFPEPVTVSWNSGALTSGVHTFPAVLQSSGLYSLESVVTVPSSSLGTQTYICNVNHKPSNTKVDKKVEPKSCDKTHTCPPCPAPELLGGPSVFLFPPKPKDTLMISRTPEVTCVVVDVSHEDPEVKFNWYVDGVEVHNAKTKPCEEQYGSTYRCVSVLTVLHQDWLNGKEYKCKVSNKALPAPIEKTISKAKGQPREPQVYTLPPSRKKMTKNQVSLTCLVKGFYPSDIAVEWESNGQPENNYKTTPPVLKSDGSFFLYSKLTVDKSRWQQGNVFSCSVMHEALHNHYTQKSLSLSPGK
light 2: EIVLTQSPATLSLSPGERATLSCRASKSVGRSLHWYQQKPGQAPRLLIKYASQSLSGIPARFSGSGSGTDFTLTISSLEPEDFAVYYCHQSSRLPFTFGPGTKVDIKRTVAAPSVFIFPPSDEQLKSGTASVVCLLNNFYPREAKVQWKVDNALQSGNSQESVTEQDSKDSTYSLESTLTLSKADYEKHKVYACEVTHQGLSSPVTKSFNRGEC
heavy 2: not shown
Fold-improvement over 4E4 Ab (human CGRP receptor): 2 fold
IC50 (human CGRP receptor): 0.29 nM
Fold-improvement over 29G4v22 Ab (human PAC1 receptor): 8.4 fold
IC50 (human PAC1 receptor): 0.79 nM

B3: iPS:454827 (bispecific antibody, human IgG1, kappa, lambda, N297G)
light 1: QSVLTQPPSVSAAPGQKVTISCSGSRSNIGIKAVSWYQQLPGTAPKLLIYDNNKRPSGIPDRFSGSKSGTSATLGITGLQTGDEADYYCGTWDSRLSAVVFGGGTKLTVLGQPKAAPSVTLFPPSSEELQANKATLVCLISDFYPGAVTVAWKADSSPVKAGVETTTPSKQSNNKYAAKSYLSLTPEQWKSHRSYSCQVTHEGSTVEKTVAPTECS
heavy 1: QVQLVESGGGVVQPGRSLRLSCAASGFTFSSFGMHWVRQAPGKGLEWVAVISFDGSIKYSVDSVKGRFTISRDNSKNTLFLQMNSLRAEDTAVYYCARDRLNYYESSGYYHYKYYGMAVWGQGTTVTVSSASTKGPSVFPLAPSSKSTSGGTAALGCLVKDYFPEPVTVSWNSGALTSGVHTFPAVLQSSGLYSLESVVTVPSSSLGTQTYICNVNHKPSNTKVDKKVEPKSCDKTHTCPPCPAPELLGGPSVFLFPPKPKDTLMISRTPEVTCVVVDVSHEDPEVKFNWYVDGVEVHNAKTKPCEEQYGSTYRCVSVLTVLHQDWLNGKEYKCKVSNKALPAPIEKTISKAKGQPREPQVYTLPPSRKKMTKNQVSLTCLVKGFYPSDIAVEWESNGQPENNYKTTPPVLKSDGSFFLYSKLTVDKSRWQQGNVFSCSVMHEALHNHYTQKSLSLSPGK
light 2: EIVLTQSPATLSLSPGERATLSCRASQSVGRSLHWYQQKPGQAPRLLIKYASQSLSGIPARFSGSGSGTDFTLTISSLEPEDFAVYYCHQSSRLPFTFGPGTKVDIKRTVAAPSVFIFPPSDEQLKSGTASVVCLLNNFYPREAKVQWKVDNALQSGNSQESVTEQDSKDSTYSLESTLTLSKADYEKHKVYACEVTHQGLSSPVTKSFNRGEC
heavy 2: not shown
Fold-improvement over 4E4 Ab (human CGRP receptor): 1.7 fold
IC50 (human CGRP receptor): 0.34 nM
Fold-improvement over 29G4v22 Ab (human PAC1 receptor): 8.9 fold
IC50 (human PAC1 receptor): 0.75 nM

B4: iPS:454831 (bispecific antibody, human IgG1, kappa, lambda, N297G)
light 1: QSVLTQPPSVSAAPGQKVTISCSGSRSNIGIKAVSWYQQLPGTAPKLLIYDNNKRPSGIPDRFSGSKSGTSATLGITGLQTGDEADYYCGTWDSRLSAVVFGGGTKLTVLGQPKAAPSVTLFPPSSEELQANKATLVCLISDFYPGAVTVAWKADSSPVKAGVETTTPSKQSNNKYAAKSYLSLTPEQWKSHRSYSCQVTHEGSTVEKTVAPTECS
heavy 1: QVQLVESGGGVVQPGRSLRLSCAASGFTFSSFGMHWVRQAPGKGLEWVAVISFDGSIKYSVDSVKGRFTISRDNSKNTLFLQMNSLRAEDTAVYYCARDRLNYYESSGYYHYKYYGMAVWGQGTTVTVSSASTKGPSVFPLAPSSKSTSGGTAALGCLVKDYFPEPVTVSWNSGALTSGVHTFPAVLQSSGLYSLESVVTVPSSSLGTQTYICNVNHKPSNTKVDKKVEPKSCDKTHTCPPCPAPELLGGPSVFLFPPKPKDTLMISRTPEVTCVVVDVSHEDPEVKFNWYVDGVEVHNAKTKPCEEQYGSTYRCVSVLTVLHQDWLNGKEYKCKVSNKALPAPIEKTISKAKGQPREPQVYTLPPSRKKMTKNQVSLTCLVKGFYPSDIAVEWESNGQPENNYKTTPPVLKSDGSFFLYSKLTVDKSRWQQGNVFSCSVMHEALHNHYTQKSLSLSPGK
light 2: EIVLTQSPATLSLSPGERATLSCRASQSVGRSLHWYQQKPGQAPRLLIKYASQSLSGIPARFSGSGSGTDFTLTISSLEPEDFAVYYCHQSSRLPFTFGPGTKVDIKRTVAAPSVFIFPPSDEQLKSGTASVVCLLNNFYPREAKVQWKVDNALQSGNSQESVTEQDSKDSTYSLESTLTLSKADYEKHKVYACEVTHQGLSSPVTKSFNRGEC
heavy 2: not shown
Fold-improvement over 4E4 Ab (human CGRP receptor): 1.7 fold
IC50 (human CGRP receptor): 0.38 nM
Fold-improvement over 29G4v22 Ab (human PAC1 receptor): 7.6 fold
IC50 (human PAC1 receptor): 0.9 nM

B5: iPS:454829 (bispecific antibody, human IgG1, kappa, lambda, N297G)
light 1: QSVLTQPPSVSAAPGQKVTISCSGSRSNIGIKAVSWYQQLPGTAPKLLIYDNNKRPSGIPDRFSGSKSGTSATLGITGLQTGDEADYYCGTWDSRLSAVVFGGGTKLTVLGQPKAAPSVTLFPPSSEELQANKATLVCLISDFYPGAVTVAWKADSSPVKAGVETTTPSKQSNNKYAAKSYLSLTPEQWKSHRSYSCQVTHEGSTVEKTVAPTECS
heavy 1: QVQLVESGGGVVQPGRSLRLSCAASGFTFSSFGMHWVRQAPGKGLEWVAVISFDGSIKYSVDSVKGRFTISRDNSKNTLFLQMNSLRAEDTAVYYCARDRLNYYESSGYYHYKYYGMAVWGQGTTVTVSSASTKGPSVFPLAPSSKSTSGGTAALGCLVKDYFPEPVTVSWNSGALTSGVHTFPAVLQSSGLYSLESVVTVPSSSLGTQTYICNVNHKPSNTKVDKKVEPKSCDKTHTCPPCPAPELLGGPSVFLFPPKPKDTLMISRTPEVTCVVVDVSHEDPEVKFNWYVDGVEVHNAKTKPCEEQYGSTYRCVSVLTVLHQDWLNGKEYKCKVSNKALPAPIEKTISKAKGQPREPQVYTLPPSRKKMTKNQVSLTCLVKGFYPSDIAVEWESNGQPENNYKTTPPVLKSDGSFFLYSKLTVDKSRWQQGNVFSCSVMHEALHNHYTQKSLSLSPGK
light 2: EIVLTQSPATLSLSPGERATLSCRASQSVGRSLHWYQQKPGQAPRLLIKYASQSLSGIPARFSGSGSGTDFTLTISSLEPEDFAVYYCHQSSRLPFTFGPGTKVDIKRTVAAPSVFIFPPSDEQLKSGTASVVCLLNNFYPREAKVQWKVDNALQSGNSQESVTEQDSKDSTYSLESTLTLSKADYEKHKVYACEVTHQGLSSPVTKSFNRGEC
heavy 2: not shown
Fold-improvement over 4E4 Ab (human CGRP receptor): 1.8 fold
IC50 (human CGRP receptor): 0.36 nM
Fold-improvement over 29G4v22 Ab (human PAC1 receptor): 9.8 fold
IC50 (human PAC1 receptor): 0.7 nM

Source: patent US20220363770A1 (Amgen, published 2022)
